Experimental findings from publication PMC7669869 (2020) are described below.

One experiment addresses JT006 (UniProt Q15848 155-161, Tyr159 was replaced with Ser | Asp was applied to substitute Ala161, unnatural amino acid Nva incorporated (position not given); FITC labeled peptide in the cell imaging). The experiment in a line: FRET; table row labelled IC50, legend says Kd.
In the next experiment the target is ADP355. The experiment in a line: FRET; table row labelled IC50, legend says Kd.

B1: AdipoR1 (overexpressed in HEK293 cells) (receptor)
chain: MSSHKGSVVAQGNGAPASNREADTVELAELGPLLEEKGKRVIANPPKAEEEQTCPVPQEEEEEVRVLTLPLQAHHAMEKMEEFVYKVWEGRWRVIPYDVLPDWLKDNDYLLHGHRPPMPSFRACFKSIFRIHTETGNIWTHLLGFVLFLFLGILTMLRPNMYFMAPLQEKVVFGMFFLGAVLCLSFSWLFHTVYCHSEKVSRTFSKLDYSGIALLIMGSFVPWLYYSFYCSPQPRLIYLSIVCVLGISAIIVAQWDRFATPKHRQTRAGVFLGLGLSGVVPTMHFTIAEGFVKATTVGQMGWFFLMAVMYITGAGLYAARIPERFFPGKFDIWFQSHQIFHVLVVAAAFVHFYGVSNLQEFRYGLEGGCTDDTLL
B1: the figures for the Kd with JT006 and with ADP355 were 1400 nM and 1100 nM, respectively.

B2: AdipoR2 (overexpressed in HEK293 cells) (receptor)
chain: MNEPTENRLGCSRTPEPDIRLRKGHQLDGTRRGDNDSHQGDLEPILEASVLSSHHKKSSEEHEYSDEAPQEDEGFMGMSPLLQAHHAMEKMEEFVCKVWEGRWRVIPHDVLPDWLKDNDFLLHGHRPPMPSFRACFKSIFRIHTETGNIWTHLLGCVFFLCLGIFYMFRPNISFVAPLQEKVVFGLFFLGAILCLSFSWLFHTVYCHSEGVSRLFSKLDYSGIALLIMGSFVPWLYYSFYCNPQPCFIYLIVICVLGIAAIIVSQWDMFATPQYRGVRAGVFLGLGLSGIIPTLHYVISEGFLKAATIGQIGWLMLMASLYITGAALYAARIPERFFPGKCDIWFHSHQLFHIFVVAGAFVHFHGVSNLQEFRFMIGGGCSEEDAL
In the experiment with JT006, B2 gave a Kd of 1200 nM.
